Assay results as given in the supplement of paper PMC10567573.

B1: ANKRD40 (parent)
chain: VCCCELGVNPDQVEKIRKLPNTLL

Variants of: B1
Test: protein stability index of a GFP-peptide fusion (GPS, HEK-293T) (PSI 1-6); higher = more stable
Conditions: c terminus: a fixed tail appended
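Further: lentivirally expressed fusions sorted by FACS into six bins by GFP to DsRed ratio, PSI derived from sequencing read proportions per bin multiplied by bin number.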

Protein stability index, by site and new letter:
K15: I 1.39; D 2.17; Y 2.09; F 2.06; W 2.53; T 1.66; E 2.81; L 2.34; S 2.34; G 1.41; Q 2.23; R 2.21; C 1.33; A 1.68; M 1.76; N 1.94; P 2.07; H 1.36; V 2.12
E14: M 1.53; Y 2.09; A 2.3; G 1.89; P 2.95; L 2.13; V 1.45; D 1.66; R 1.05; H 2.08; C 1.71; T 1.68; K 1.48; Q 1.48; S 1.45; N 1.91; W 2.21
V13: T 1.76; Y 1.84; R 2.27; W 2.07; M 1.67; L 1.64; P 2.18; N 2.38; Q 2.42; S 2.05; K 2.25
R17: V 1.82; T 1.47; E 2.31; I 3.09; M 1.9; C 1.46; H 2.23; L 1.78; W 1.74; A 1.81; N 1.67; G 1.45; Q 1.62; S 1.94; Y 1.92; D 2.21; P 2.15; K 2.29; F 1.92
L19: C 2.34; D 2.9; T 2.33; S 2.17; V 2.62; H 1.79; Q 2.5; E 2.73; F 1.57; K 2.48; M 2.1; I 2.25; Y 1.76; P 1.91; A 2.12; W 2.73; N 2.23; G 3.13; R 2.5
T22: C 1.72; G 1.51; A 2.09; E 2.64; D 2.5; F 2.2; H 1.8; I 2.06
P20: H 2.55; Y 2.23; Q 1.87; D 1.48; E 1.4; K 1.95; S 1.95; M 1.57; N 2.3; T 2.2; R 1.91; L 2.02; A 1.88; C 1.38; G 2.08; V 1.82; I 1.38
K18: T 1.89; W 1.75; H 2.95; E 2.03; L 1.72; S 2.08; I 1.43; M 1.68; A 1.26; G 1.53; F 2.53; C 1.75; P 1.59; D 2.08; Q 1.54; V 2.15; R 2.18; N 1.64; Y 1.31
I16: G 2.01; N 3.14; Q 2.32; M 1.67; R 2.12; E 3.09; A 3.14; D 2.76; K 2.53; V 2.38; F 1.69; W 2.13; Y 1.51; P 2.89; C 2.22; H 1.98; T 2.56; L 1.56; S 2.08
N21: G 1.45; W 1.32; P 1.83; V 1.83; M 1.84; A 1.7; F 1.95; Y 2.47; H 1.83; S 1.9; K 3.13; Q 1.74; E 2.02; R 1.34; D 2.43; C 2.21; L 1.94; I 2.15; T 2.04
